Measured values published in paper PMC5432123.
Residue numbers refer to the chain shown, from its start. Names and notes keep the numbering of the source. Values belong to the binder of their own block, whether it stands above or below them.

Target: microtubules (tubulin)

in vitro MT gliding assay, speed of MT gliding (n = 25): 1.68 mμ/sec
B1: UNC-104 (1-371 a.a), truncated version (domain or fragment)
chain: MSSVKVAVRVRPFNQREISNTSKCVLQVNGNTTTINGHSINKENFSFNFDHSYWSFARNDPHFITQKQVYEELGVEMLEHAFEGYNVCIFAYGQTGSGKSYTMMGKANDPDEMGIIPRLCNDLFARIDNNNDKDVQYSVEVSYMEIYCERVKDLLNPNSGGNLRVREHPLLGPYVDDLTKMAVCSYHDICNLMDEGNKARTVAATNMNSTSSRSHAVFTIVLTQKRHCADSNLDTEKHSKISLVDLAGSERANSTGAEGQRLKEGANINKSLTTLGLVISKLAEESTKKKKSNKGVIPYRDSVLTWLLRENLGGNSKTAMLAALSPADINFDETLSTLRYADRAKQIVCQAVVNEDPNAKLIRELNEEVIK

in vitro MT gliding assay, speed of MT gliding (n = 25): 1.35 μm/sec
B2: UNC-104 (1-371 a.a) V6I, truncated version (domain or fragment)
chain: B1 chain with V6I
